Measured values published in the supplement of paper PMC11246515.
± gives the standard deviation of the averaged measurements.

Assay: total protein half-life in vivo (active degradation + dilution); higher = more stable protein
[1] = wild type E. coli NCM3722, growth: C-lim chemostat, doubling time 3 h
[2] = wild type E. coli NCM3722, growth: C-lim chemostat, doubling time 6 h
[3] = wild type E. coli NCM3722, growth: C-lim chemostat, doubling time 12 h
[4] = E. coli NCM3722 delta-clpP delta-lon delta-hslV, growth: N-lim chemostat, doubling time 6 h
[5] = E. coli NCM3722 delta-clpP, growth: N-lim chemostat, doubling time 6 h
[6] = E. coli NCM3722 delta-hslV, growth: N-lim chemostat, doubling time 6 h
[7] = E. coli NCM3722 delta-lon, growth: N-lim chemostat, doubling time 6 h
[8] = E. coli NCM3722 delta-smpB, growth: N-lim chemostat, doubling time 6 h
[9] = wild type E. coli NCM3722, growth: N-lim chemostat, doubling time 6 h
[10] = wild type E. coli NCM3722, growth: N-lim chemostat, doubling time 12 h
[11] = wild type E. coli NCM3722, growth: P-lim chemostat, doubling time 6 h
[12] = wild type E. coli NCM3722, growth: P-lim chemostat, doubling time 12 h

Sequence	total protein half-life in vivo [1]	total protein half-life in vivo [2]	total protein half-life in vivo [3]	total protein half-life in vivo [4]	total protein half-life in vivo [5]	total protein half-life in vivo [6]	total protein half-life in vivo [7]	total protein half-life in vivo [8]	total protein half-life in vivo [9]	total protein half-life in vivo [10]	total protein half-life in vivo [11]	total protein half-life in vivo [12]
MNRWENIQLTHENRLAPRAYFFSYDSVAQARTFARETSSLFLPLSGQWNFHFFDHPLQVPEAFTSELMADWGHITVPAMWQMEGHGKLQYTDEGFPFPIDVPFVPSDNPTGAYQRIFTLSDGWQGKQTLIKFDGVETYFEVYVNGQYVGFSKGSRLTAEFDISAMVKTGDNLLCVRVMQWADSTYVEDQDMWWSAGIFRDVYLVGKHLTHINDFTVRTDFDEAYCDATLSCEVVLENLAASPVVTTLEYTLFDGERVVHSSAIDHLAIEKLTSASFAFTVEQPQQWSAESPYLYHLVMTLKDANGNVLEVVPQRVGFRDIKVRDGLFWINNRYVMLHGVNRHDNDHRKGRAVGMDRVEKDLQLMKQHNINSVRTAHYPNDPRFYELCDIYGLFVMAETDVESHGFANVGDISRITDDPQWEKVYVERIVRHIHAQKNHPSIIIWSLGNESGYGCNIRAMYHAAKALDDTRLVHYEEDRDAEVVDIISTMYTRVPLMNEFGEYPHPKPRIICEYAHAMGNGPGGLTEYQNVFYKHDCIQGHYVWEWCDHGIQAQDDHGNVWYKFGGDYGDYPNNYNFCLDGLIYSDQTPGPGLKEYKQVIAPVKIHARDLTRGELKVENKLWFTTLDDYTLHAEVRAEGETLATQQIKLRDVAPNSEAPLQITLPQLDAREAFLNITVTKDSRTRYSEAGHPIATYQFPLKENTAQPVPFAPNNARPLTLEDDRLSCTVRGYNFAITFSKMSGKPTSWQVNGESLLTREPKINFFKPMIDNHKQEYEGLWQPNHLQIMQEHLRDFAVEQSDGEVLIISRTVIAPPVFDFGMRCTYIWRIAADGQVNVALSGERYGDYPHIIPCIGFTMGINGEYDQVAYYGRGPGENYADSQQANIIDIWRSTVDAMFENYPFPQNNGNRQHVRWTALTNRHGNGLLVVPQRPINFSAWHYTQENIHAAQHCNELQRSDDITLNLDHQLLGLGSNSWGSEVLDSWRVWFRDFSYGFTLLPVSGGEATAQSLASYEFGAGFFSTNLHSENKQ	3.17 ± 0.0082 h	5.26 ± 0.23 h	12.4 ± 2 h	–	–	–	–	–	–	–	–	–
MMLSATQPLSEKLPAHGCRHVAIIMDGNGRWAKKQGKIRAFGHKAGAKSVRRAVSFAANNGIEALTLYAFSSENWNRPAQEVSALMELFVWALDSEVKSLHRHNVRLRIIGDTSRFNSRLQERIRKSEALTAGNTGLTLNIAANYGGRWDIVQGVRQLAEKVQQGNLQPDQIDEEMLNQHVCMHELAPVDLVIRTGGEHRISNFLLWQIAYAELYFTDVLWPDFDEQDFEGALNAFANRERRFGGTEPGDETA	2.21 ± 0.11 h	3.73 ± 0.41 h	5.97 h	4.31 ± 0.33 h	4.73 ± 0.53 h	2.9 ± 0.15 h	3.15 ± 0.76 h	3.01 ± 0.68 h	3.18 ± 0.091 h	6.55 h	3.94 ± 0.13 h	5.49 ± 2.1 h
MMSFQKIYSPTQLANAMKLVRQQNGWTQSELAKKIGIKQATISNFENNPDNTTLTTFFKILQSLELSMTLCDAKNASPESTEQQNLEW	–	–	11.7 h	–	–	–	–	–	4.64 h	–	–	12 ± 0.84 h
MKDVVIVGALRTPIGCFRGALAGHSAVELGSLVVKALIERTGVPAYAVDEVILGQVLTAGAGQNPARQSAIKGGLPNSVSAITINDVCGSGLKALHLATQAIQCGEADIVIAGGQENMSRAPHVLTDSRTGAQLGNSQLVDSLVHDGLWDAFNDYHIGVTAENLAREYGISRQLQDAYALSSQQKARAAIDAGRFKDEIVPVMTQSNGQTLVVDTDEQPRTDASAEGLARLNPSFDSLGSVTAGNASSINDGAAAVMMMSEAKARALNLPVLARIRAFASVGVDPALMGIAPVYATRRCLERVGWQLAEVDLIEANEAFAAQALSVGKMLEWDERRVNVNGGAIALGHPIGASGCRILVSLVHEMVKRNARKGLATLCIGGGQGVALTIERDE	1.35 ± 0.2 h	2.66 ± 0.38 h	3.57 ± 0.4 h	5.29 ± 0.14 h	–	–	–	–	–	–	0.858 h	2 ± 0.37 h
MNQTLLSSFGTPFERVENALAALREGRGVMVLDDEDRENEGDMIFPAETMTVEQMALTIRHGSGIVCLCITEDRRKQLDLPMMVENNTSAYGTGFTVTIEAAEGVTTGVSAADRITTVRAAIADGAKPSDLNRPGHVFPLRAQAGGVLTRGGHTEATIDLMTLAGFKPAGVLCELTNDDGTMARAPECIEFANKHNMALVTIEDLVAYRQAHERKAS [P0A7J0]	1.2 ± 0.25 h	1.2 ± 0.21 h	1.35 ± 0.13 h	5.39 ± 0.59 h	4.61 ± 0.68 h	1.27 ± 0.23 h	1.22 ± 0.28 h	1.02 ± 0.1 h	1.291 ± 0.0046 h	1.52 ± 0.086 h	0.987 h	1.82 ± 1.1 h
